Data from US20090017041A1.

Legend:
[1] = target: low molecular weight (LMW) monomeric preparation of the Aβ1-42 peptide (Example 15) (human); test: ELISA, fraction coated at 2 µM; antibody 0.125 µg/ml
[2] = target: high molecular weight (HMW) proto-fibrillar (PF) oligomer enriched preparation of the Aβ1-42 peptide (Example 15) (human); test: as above
[3] = target: oligomer-enriched preparation of the Aβ1-42 peptide (Example 16); test: ELISA, fraction coated at 2.2 µM; antibody dilution 1:128 (start 0.5 µg/ml)
[4] = target: monomer-enriched preparation of the Aβ1-42 peptide (Example 16); test: as above
[5] = target: oligomer-enriched preparation of the Aβ1-42 peptide (Example 16); test: ELISA, fraction coated at 2.2 µM; antibody dilution 1:4 (start 0.5 µg/ml)
[6] = target: monomer-enriched preparation of the Aβ1-42 peptide (Example 16); test: as above
[7] = target: oligomer-enriched preparation of the Aβ1-42 peptide (Example 16); test: ELISA, fraction coated at 2.2 µM; assay 1; antibody dilution 1:32 (start 0.5 µg/ml)
[8] = target: monomer-enriched preparation of the Aβ1-42 peptide (Example 16); test: as above
[9] = target: oligomer-enriched preparation of the Aβ1-42 peptide (Example 16); test: ELISA, fraction coated at 2.2 µM; assay 2; antibody dilution 1:16 (start 0.5 µg/ml)
[10] = target: monomer-enriched preparation of the Aβ1-42 peptide (Example 16); test: as above
[11] = target: oligomer-enriched preparation of the Aβ1-42 peptide (Example 16); test: ELISA, fraction coated at 2.2 µM; assay 3; antibody dilution 1:128 (start 0.5 µg/ml)
[12] = target: monomer-enriched preparation of the Aβ1-42 peptide (Example 16); test: as above
[13] = target: oligomer-enriched preparation of the Aβ1-42 peptide (Example 16); test: ELISA, fraction coated at 2.2 µM; assay 3; antibody dilution 1:16 (start 0.5 µg/ml)
[14] = target: monomer-enriched preparation of the Aβ1-42 peptide (Example 16); test: as above
[15] = target: low molecular weight (LMW) monomeric preparation of the Aβ1-42 peptide (Example 15) (human); test: ELISA, fraction coated at 2 µM; antibody 1 µg/ml
[16] = target: high molecular weight (HMW) proto-fibrillar (PF) oligomer enriched preparation of the Aβ1-42 peptide (Example 15) (human); test: ELISA, fraction coated at 2 µM; antibody 1 µg/ml
[17] = target: oligomer-enriched preparation of the Aβ1-42 peptide (Example 16); test: ELISA, fraction coated at 2.2 µM; antibody dilution 1:32 (start 0.5 µg/ml)
[18] = target: monomer-enriched preparation of the Aβ1-42 peptide (Example 16); test: as above
[19] = target: low molecular weight (LMW) monomeric preparation of the Aβ1-42 peptide (Example 15) (human); test: ELISA, fraction coated at 2 µM; antibody 0.0156 µg/ml
[20] = target: high molecular weight (HMW) proto-fibrillar (PF) oligomer enriched preparation of the Aβ1-42 peptide (Example 15) (human); test: as above
[21] = target: oligomer-enriched preparation of the Aβ1-42 peptide (Example 16); test: ELISA, fraction coated at 2.2 µM; assay 2; antibody dilution 1:4 (start 0.5 µg/ml)
[22] = target: monomer-enriched preparation of the Aβ1-42 peptide (Example 16); test: as above
[23] = target: oligomer-enriched preparation of the Aβ1-42 peptide (Example 16); test: ELISA, fraction coated at 2.2 µM; assay 2; antibody dilution 1:8 (start 0.5 µg/ml)
[24] = target: oligomer-enriched preparation of the Aβ1-42 peptide (Example 16); test: ELISA, fraction coated at 2.2 µM; antibody dilution 1:2 (start 0.5 µg/ml)
[25] = target: monomer-enriched preparation of the Aβ1-42 peptide (Example 16); test: as above
[26] = target: oligomer-enriched preparation of the Aβ1-42 peptide (Example 16); test: ELISA, fraction coated at 2.2 µM; assay 1; antibody dilution 1:2 (start 0.5 µg/ml)
[27] = target: monomer-enriched preparation of the Aβ1-42 peptide (Example 16); test: as above
[28] = target: low molecular weight (LMW) monomeric preparation of the Aβ1-42 peptide (Example 15) (human); test: ELISA, fraction coated at 2 µM; antibody 0.0078 µg/ml
[29] = target: high molecular weight (HMW) proto-fibrillar (PF) oligomer enriched preparation of the Aβ1-42 peptide (Example 15) (human); test: as above
[30] = target: low molecular weight (LMW) monomeric preparation of the Aβ1-42 peptide (Example 15) (human); test: ELISA, fraction coated at 2 µM; antibody 0.25 µg/ml
[31] = target: high molecular weight (HMW) proto-fibrillar (PF) oligomer enriched preparation of the Aβ1-42 peptide (Example 15) (human); test: as above
[32] = target: oligomer-enriched preparation of the Aβ1-42 peptide (Example 16); test: ELISA, fraction coated at 2.2 µM; antibody dilution 1:1 (start 0.5 µg/ml)
[33] = target: monomer-enriched preparation of the Aβ1-42 peptide (Example 16); test: as above

low molecular weight (LMW) monomeric preparation of the Aβ1-42 peptide (Example 15) (human), sequence (peptide, as listed by the source): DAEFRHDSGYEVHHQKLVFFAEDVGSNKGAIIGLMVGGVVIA
oligomer-enriched preparation of the Aβ1-42 peptide (Example 16), sequence (peptide, as listed by the source): as above
monomer-enriched preparation of the Aβ1-42 peptide (Example 16), sequence (peptide, as listed by the source): as above
high molecular weight (HMW) proto-fibrillar (PF) oligomer enriched preparation of the Aβ1-42 peptide (Example 15) (human), sequence (peptide, as listed by the source): as above

With 6E10 control antibody the O.D. (405 nm) [1] was 0.999 O.D, the O.D. (405 nm) [2] was 0.863 O.D and the O.D. (405 nm), mean of 3 assays [3] was 0.63 O.D. The O.D. (405 nm), mean of 3 assays [4] was 0.75 O.D, the O.D. (405 nm), mean of 3 assays [5] was 3.37 O.D and the O.D. (405 nm), mean of 3 assays [6] was 3.27 O.D. The O.D. (405 nm) [7] was 1.27 O.D, the O.D. (405 nm) [8] was 1.18 O.D and the O.D. (405 nm) [9] was 1.92 O.D. For the same substance, the O.D. (405 nm) [10] was 1.94 O.D, the O.D. (405 nm) [11] was 0.66 O.D and the O.D. (405 nm) [12] was 0.86 O.D. The O.D. (405 nm) [13] was 2.07 O.D, the O.D. (405 nm) [14] was 2.23 O.D and the O.D. (405 nm) [15] was 2.68 O.D. The O.D. (405 nm) [16] was 2.55 O.D, the O.D. (405 nm), mean of 3 assays [17] was 1.32 O.D and the O.D. (405 nm), mean of 3 assays [18] was 1.36 O.D. It also gave an O.D. (405 nm) [19] of 0.207 O.D, an O.D. (405 nm) [20] of 0.201 O.D and an O.D. (405 nm) [21] of 3.37 O.D. For the same substance, the O.D. (405 nm) [22] was 3.29 O.D, the O.D. (405 nm) [23] was 2.99 O.D and the O.D. (405 nm), mean of 3 assays [24] was 3.59 O.D. For the same substance, the O.D. (405 nm), mean of 3 assays [25] was 3.59 O.D, the O.D. (405 nm) [26] was 3.39 O.D and the O.D. (405 nm) [27] was 3.3 O.D. The O.D. (405 nm) [28] was 0.133 O.D, the O.D. (405 nm) [29] was 0.116 O.D and the O.D. (405 nm) [30] was 1.56 O.D. It also gave an O.D. (405 nm) [31] of 1.44 O.D, an O.D. (405 nm), mean of 3 assays [32] of 3.64 O.D and an O.D. (405 nm), mean of 3 assays [33] of 3.83 O.D.
